Numbered stars: 1 amine (or outer) side, 2 acyl side, 3 side chain; on linkers, the order of the positions; unused ones are H or OH. Square brackets hold non-standard residues; d marks the D form. Primed or numbered codes have the meaning given here. Side chains are listed from the residue outwards. Ends that are not written are not given here. * marks the point of attachment. C20 diacid = O=C(O)CCCCCCCCCCCCCCCCCCC(=O)*; C18 diacid = O=C(O)CCCCCCCCCCCCCCCCC(=O)*; C16 diacid = O=C(O)CCCCCCCCCCCCCCC(=O)*; γGlu = O=C(O)[C@H](CCC(=O)[*:2])N[*:1]; Iva = CC[C@](C)(N)C(=O)O; PEG3′ = not defined here; AGlu = not defined here; Aib = CC(C)(N)C(=O)O
T1: full-length human GIPR (GenBank NM_000164) with an N-terminal FLAG tag on HEK-293T cells (human), P48546
T1 chain: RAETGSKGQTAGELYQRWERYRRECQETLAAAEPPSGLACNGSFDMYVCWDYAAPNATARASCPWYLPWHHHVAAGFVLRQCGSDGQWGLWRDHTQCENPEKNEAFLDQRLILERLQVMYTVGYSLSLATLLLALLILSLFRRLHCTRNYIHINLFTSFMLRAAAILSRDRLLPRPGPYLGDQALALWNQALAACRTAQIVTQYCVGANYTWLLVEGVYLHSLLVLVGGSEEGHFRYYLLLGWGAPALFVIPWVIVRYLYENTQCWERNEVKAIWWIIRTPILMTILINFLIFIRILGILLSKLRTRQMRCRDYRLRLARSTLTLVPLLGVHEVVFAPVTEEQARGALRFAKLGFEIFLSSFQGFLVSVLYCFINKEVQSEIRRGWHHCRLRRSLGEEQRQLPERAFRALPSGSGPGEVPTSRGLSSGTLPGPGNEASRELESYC

T2: full-length human GLP-1R (GenBank NM_002062) with an N-terminal FLAG tag on HEK-293T cells (human), P43220
T2 chain: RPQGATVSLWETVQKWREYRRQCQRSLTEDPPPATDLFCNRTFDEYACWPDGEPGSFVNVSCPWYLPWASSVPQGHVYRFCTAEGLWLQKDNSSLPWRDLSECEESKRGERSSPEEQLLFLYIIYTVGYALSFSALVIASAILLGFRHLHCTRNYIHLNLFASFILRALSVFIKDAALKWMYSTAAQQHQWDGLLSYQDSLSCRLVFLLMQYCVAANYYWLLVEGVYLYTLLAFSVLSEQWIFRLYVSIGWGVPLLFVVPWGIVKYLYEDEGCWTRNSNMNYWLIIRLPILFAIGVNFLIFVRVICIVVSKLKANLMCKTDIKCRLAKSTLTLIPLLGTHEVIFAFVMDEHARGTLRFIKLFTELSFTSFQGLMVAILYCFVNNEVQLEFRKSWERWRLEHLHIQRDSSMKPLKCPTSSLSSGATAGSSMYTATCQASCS

T3: human GIPR (Genebank Accession No. U39231) on hGIPR/CRE-LUC/CHO-K1 cells (human), P48546
T3 chain: T1 chain

T4: human GLP-1R (Genebank Accession No. NM_002062) on hGLP-1R/CRE-luc/CHO-K1 cells (human), P43220
T4 chain: T2 chain

B1: Compound No 899 (peptide)
peptide: Y[Aib]EGTFISDYSIALDR[Aib]HQ[Aib]NFVNW[Iva]LAQRPSK([PEG3′-PEG3′-C18 diacid])GAPPPSR
modifications: ends and bridges not checked
B2: Compound No 900 (peptide)
peptide: Y[Aib]EGTFISDYSIALDR[Aib]HQ[Aib]NFVNW[Iva]LAQRPSK([PEG3′-PEG3′-C20 diacid])GAPPPSR
modifications: ends and bridges not checked
B3: Compound No 898 (peptide)
peptide: Y[Aib]EGTFISDYSIALDR[Aib]HQ[Aib]NFVNW[Iva]LAQRPSK([PEG3′-PEG3′-C16 diacid])GAPPPSR
modifications: ends and bridges not checked
B4: Compound No 942 (peptide)
peptide: Y[Aib]EGTFISDYSIALDR[Aib]HQ[Aib]NFVNW[Iva]LAQRGGGGSK([PEG3′-PEG3′-γGlu-C18 diacid])
modifications: ends and bridges not checked
B5: Compound No 934 (peptide)
peptide: Y[Aib]EGTFISDYSIALDR[Aib]HQ[Aib]NFVNW[Iva]LAQRPSSGAPPK([PEG3′-PEG3′-C18 diacid])SR
modifications: ends and bridges not checked
B6: Compound No 943 (peptide)
peptide: Y[Aib]EGTFISDYSIALDR[Aib]HQ[Aib]NFVNW[Iva]LAQRGGGGSGGGGSK([PEG3′-PEG3′-γGlu-C18 diacid])
modifications: ends and bridges not checked
B7: Compound No 935 (peptide)
peptide: Y[Aib]EGTFISDYSIALDR[Aib]HQ[Aib]NFVNW[Iva]LAQRPSSGAPPK([PEG3′-PEG3′-C20 diacid])SR
modifications: ends and bridges not checked
B8: Compound No 940 (peptide)
peptide: Y[Aib]EGTFISDYSIALDR[Aib]HQ[Aib]NFVNW[Iva]LAQRPSSGAPPPK([PEG3′-PEG3′-C18 diacid])R
modifications: ends and bridges not checked
B9: Compound No 927 (peptide)
peptide: Y[Aib]EGTFISDYSIALDR[Aib]HQ[Aib]NFVNW[Iva]LAQRPSSGAPK([PEG3′-PEG3′-C16 diacid])PSR
modifications: ends and bridges not checked
B10: Compound No 912 (peptide)
peptide: Y[Aib]EGTFISDYSIALDR[Aib]HQ[Aib]NFVNW[Iva]LAQRK([PEG3′-PEG3′-C18 diacid])SSGAPPPSR
modifications: ends and bridges not checked
B11: Compound No 893 (peptide)
peptide: Y[Aib]EGTFISDYSIALDR[Aib]HQ[Aib]NFVNW[Iva]LAQRPK([PEG3′-PEG3′-C18 diacid])SGAPPPSR
modifications: ends and bridges not checked
B12: Compound No 892 (peptide)
peptide: Y[Aib]EGTFISDYSIALDR[Aib]HQ[Aib]NFVNW[Iva]LAQRPK([PEG3′-PEG3′-C16 diacid])SGAPPPSR
modifications: ends and bridges not checked
B13: Compound No 939 (peptide)
peptide: Y[Aib]EGTFISDYSIALDR[Aib]HQ[Aib]NFVNW[Iva]LAQRPSSGAPPPK([PEG3′-PEG3′-C16 diacid])R
modifications: ends and bridges not checked
B14: Compound No 933 (peptide)
peptide: Y[Aib]EGTFISDYSIALDR[Aib]HQ[Aib]NFVNW[Iva]LAQRPSSGAPPK([PEG3′-PEG3′-C16 diacid])SR
modifications: ends and bridges not checked
B15: Compound No 929 (peptide)
peptide: Y[Aib]EGTFISDYSIALDR[Aib]HQ[Aib]NFVNW[Iva]LAQRPSSGAPK([PEG3′-PEG3′-C20 diacid])PSR
modifications: ends and bridges not checked
B16: Compound No 894 (peptide)
peptide: Y[Aib]EGTFISDYSIALDR[Aib]HQ[Aib]NFVNW[Iva]LAQRPK([PEG3′-PEG3′-C20 diacid])SGAPPPSR
modifications: ends and bridges not checked
B17: Compound No 941 (peptide)
peptide: Y[Aib]EGTFISDYSIALDR[Aib]HQ[Aib]NFVNW[Iva]LAQRPSSGAPPPK([PEG3′-PEG3′-C20 diacid])R
modifications: ends and bridges not checked
B18: Compound No 928 (peptide)
peptide: Y[Aib]EGTFISDYSIALDR[Aib]HQ[Aib]NFVNW[Iva]LAQRPSSGAPK([PEG3′-PEG3′-C18 diacid])PSR
modifications: ends and bridges not checked
B19: Compound No. 23 (peptide)
peptide: Y[Aib]EGTFISDYSIALDR[Aib]HQ[Aib]NFVNW[Iva]LAQRPSSGAPPPSK([PEG3′-PEG3′-AGlu-C20 diacid])
modifications: ends and bridges not checked
B20: Compound No. 42 (peptide)
peptide: Y[Aib]EGTFISDYSIALDR[Aib]HQ[Aib]NFVNW[Iva]LAQRPSSGAPPPSK([PEG(2)-C18 diacid])
modifications: ends and bridges not checked
B21: Compound No. 38 (peptide)
peptide: Y[Aib]EGTFISDYSIALDR[Aib]HQ[Aib]NFVNW[Iva]LAQRPSSGAPPPSK([PEG(2)-C20 diacid])
modifications: ends and bridges not checked
B22: Compound No. 22 (peptide)
peptide: Y[Aib]EGTFISDYSIALDR[Aib]HQ[Aib]NFVNW[Iva]LAQRPSSGAPPPSK([PEG3′-PEG3′-AGlu-C18 diacid])
modifications: ends and bridges not checked
B23: Compound No. 20 (peptide)
peptide: Y[Aib]EGTVVSLYSI[Aib]LDKQAQ[Aib]EFVKWLLAQKK([PEG(2)-Pal])
modifications: ends and bridges not checked
B24: Compound No. 21 (peptide)
peptide: Y[Aib]EGTFISDYSIALDR[Aib]HQ[Aib]NFVNW[Iva]LAQRPSSGAPPPSK([PEG3′-PEG3′-AGlu-C16 diacid])
modifications: ends and bridges not checked

Molecular target: T1, full-length human GIPR (GenBank …)
Experiment: cell-based or functional assay

Binder	GIP EC50(pM)
B1	0.7
B2	0.7
B3	0.6
B4	1.4
B5	0.6
B6	1.5
B7	1
B8	0.7
B9	1.3
B10	0.7
B11	2.3
B12	1.7
B13	0.6
B14	0.6
B15	1.8
B16	1.9
B17	0.4
B18	1.6

Molecular target: T2, full-length human GLP-1R (GenBank …)
Experiment: cell-based or functional assay

Binder	GLP EC50 [nM]
B1	144
B2	219
B3	74.1
B4	4.3
B5	436
B6	1.2
B7	1000
B8	525
B9	436
B10	105
B11	2.1
B12	151
B13	1000
B14	97.7
B15	46.8
B16	794
B17	1000
B18	135

Molecular target: T3, human GIPR (Genebank Accession No. …)
Experiment: cell-based or functional assay

Binder	hGIPR (polyclonal) Reporter (EC50) [nM]
B19	0.1
B20	0.03
B21	0.05
B22	0.05
B23	0.1
B24	0.01

Molecular target: T4, human GLP-1R (Genebank Accession No. …)
Experiment: cell-based or functional assay

Binder	hGLP-1R (Reporter gene assay)(EC50) [nM]
B19	> 1000
B20	> 1000
B21	> 1000
B22	> 1000
B23	> 1000
B24	> 1000

From patent publication US20220135638A1 (Takeda / Millennium, published 2022)
